Test results published in patent publication US20230372448A1, “THERAPEUTIC USE OF LONG-ACTING CONJUGATE OF TRIPLE AGONIST ACTING ON ALL OF GLUCAGON, GLP-1 AND GIP RECEPTORS AGAINST MULTIPLE SCLEROSIS” (HANMI PHARM. CO. ,LTD., priority 2020, published 2023).
Positions of bridges follow the written chain, without caps; N, C: chain ends. Non-standard residues stand in square brackets, D forms with d. No end group written: not given here. *: point of attachment. Acetyl(2-(4-imidazolyl)) = O=C(Cc1c[nH]cn1)*; Aib = CC(C)(N)C(=O)O

T1: human GIP receptor (human, UniProt P48546 22-466)
T1 sequence (looked up): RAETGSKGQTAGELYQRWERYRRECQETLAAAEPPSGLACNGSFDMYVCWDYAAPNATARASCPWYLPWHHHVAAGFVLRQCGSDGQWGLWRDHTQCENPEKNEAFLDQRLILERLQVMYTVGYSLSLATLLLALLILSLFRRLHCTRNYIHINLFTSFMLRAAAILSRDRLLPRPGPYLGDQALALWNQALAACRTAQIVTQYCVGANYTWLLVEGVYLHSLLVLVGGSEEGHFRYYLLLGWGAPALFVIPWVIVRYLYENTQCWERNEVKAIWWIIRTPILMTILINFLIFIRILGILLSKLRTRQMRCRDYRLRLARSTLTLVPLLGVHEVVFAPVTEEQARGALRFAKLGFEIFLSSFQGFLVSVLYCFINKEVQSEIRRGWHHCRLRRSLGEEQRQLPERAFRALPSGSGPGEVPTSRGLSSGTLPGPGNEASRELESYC


What was measured:
Experiment in all cases: cell-based or functional assay
human GIP receptor = target: T1, human GIP receptor
human GCG receptor = human GCG receptor (human, UniProt P47871 26-477)
human GLP-1 receptor = human GLP-1 receptor (human, UniProt P43220 24-463)

Sequence of human GCG receptor (P47871 26-477): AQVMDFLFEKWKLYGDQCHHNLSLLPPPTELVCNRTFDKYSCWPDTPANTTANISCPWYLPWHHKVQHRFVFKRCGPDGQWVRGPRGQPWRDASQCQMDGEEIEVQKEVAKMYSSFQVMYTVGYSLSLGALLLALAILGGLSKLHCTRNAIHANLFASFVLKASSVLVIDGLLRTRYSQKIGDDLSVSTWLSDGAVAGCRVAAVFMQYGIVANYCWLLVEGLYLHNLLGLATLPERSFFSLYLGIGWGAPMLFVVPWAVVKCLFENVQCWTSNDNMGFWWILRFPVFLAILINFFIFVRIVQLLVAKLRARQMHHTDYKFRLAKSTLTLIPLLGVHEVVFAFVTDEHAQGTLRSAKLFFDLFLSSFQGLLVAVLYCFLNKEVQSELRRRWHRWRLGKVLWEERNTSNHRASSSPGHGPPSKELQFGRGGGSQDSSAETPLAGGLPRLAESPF

Binder	In vitro activity (%) compared with native peptide: vs GIP (human GIP receptor) [%]	In vitro activity (%) compared with native peptide: vs Glucagon (human GCG receptor) [%]	In vitro activity (%) compared with native peptide: vs GLP-1 (human GLP-1 receptor) [%]
H[Aib]QGTFTSDYSKYLDEKRQKEFVQWLLDTKC (bridge 16-20; not fully specified) [triple agonist of SEQ ID NO: 78]	0.12	14	51
H[Aib]EGTFTSDYSIAMDEIHQKDFVDWLLAEKC (bridge 16-20; not fully specified) [triple agonist of SEQ ID NO: 80]	0.1	0	8.1
{Acetyl(2-(4-imidazolyl))}-[Aib]QGTFTSDKSKYLDERAAQDFVQWLLDGGPSSGAPPPS (not fully specified) [triple agonist of SEQ ID NO: 62]	< 0.1	< 0.1	5.2
Y[Aib]QGTFTSDYSKYLDEKAAKEFVQWLLDHHPSSGQPPPSC (bridge 16-20; not fully specified) [triple agonist of SEQ ID NO: 75]	18	8.5	35.1
Y[Aib]QGTFTSDYSKCLDERAAKEFVQWLLDHHPSSGQPPPS (bridge 16-20; not fully specified) [triple agonist of SEQ ID NO: 69]	62.8	9.6	24.3
H[Aib]QGTFTSDYSKCLDEKRAKEFVQWLLDHHPSSGQPPPS (bridge 16-20; not fully specified) [triple agonist of SEQ ID NO: 65]	11.6	25.2	95.4
Y[Aib]QGTFTSDYSKCLDEKRAKDFVQWLLDHHPSSGQPPPS (bridge 16-20; not fully specified) [triple agonist of SEQ ID NO: 70]	64.4	71.3	15.1
{Acetyl(2-(4-imidazolyl))}-[Aib]EGTFTSDYSIAMDEIHQKDFVDWLLAEC (bridge 15-19; not fully specified) [triple agonist of SEQ ID NO: 84]	< 0.1	< 0.1	4.2
{Acetyl(2-(4-imidazolyl))}-[Aib]QGTFTSDYSIAMDEIACKDFVNWLLNTK (bridge 15-19; not fully specified) [triple agonist of SEQ ID NO: 61]	2.8	< 0.1	59.8
Y[Aib]QGTFTSDCSKYLDERAAKDFVQWLLDHHPSSGQPPPS (bridge 16-20; not fully specified) [triple agonist of SEQ ID NO: 72]	1.6	1	11.5
{Acetyl(2-(4-imidazolyl))}-[Aib]QGTFTSDYSKCLDEKRAKEFVQWLLDHHPSSGQPPPS (bridge 15-19; not fully specified) [triple agonist of SEQ ID NO: 74]	1	0.9	12.9
Y[Aib]QGTFTSDYSKYLDECAAKDFVQWLLDHHPSSGQPPPS (bridge 16-20) [triple agonist of SEQ ID NO: 67]	39.8	46.2	28.5
Y[Aib]QGTFTSDYSKCLDEKAAKEFVQWLLDHHPSSGQPPPS (bridge 16-20; not fully specified) [triple agonist of SEQ ID NO: 68]	107	8.8	27.9
{Acetyl(2-(4-imidazolyl))}-[Aib]QGTFTSDYSKYLDECRAKEFVQWLLDHHPSSGQPPPS (bridge 15-19; not fully specified) [triple agonist of SEQ ID NO: 73]	3	5.4	22.6
{Acetyl(2-(4-imidazolyl))}-[Aib]QGTFTSDCSKYLDERAAQDFVQWLLDGGPSSGAPPPS (not fully specified) [triple agonist of SEQ ID NO: 63]	< 0.1	< 0.1	15.3
Y[Aib]QGTFTSDYSKYLDERACKDFVQWLLDHHPSSGQPPPS (bridge 16-20; not fully specified) [triple agonist of SEQ ID NO: 71]	94.7	12.7	90.1
Y[Aib]QGTFTSDYSKYLDEKAAKDFVQWLLDHHPSSGQPPPSC (bridge 16-20; not fully specified) [triple agonist of SEQ ID NO: 77]	35.5	12.2	38.7
{Acetyl(2-(4-imidazolyl))}-[Aib]QGTFTSDYSKYLDEKRQKEFVQWLLDTC (bridge 15-19; not fully specified) [triple agonist of SEQ ID NO: 82]	< 0.1	1.1	9.5
Y[Aib]QGTFTSDYSKYLDECAAKEFVQWLLDHHPSSGQPPPS (bridge 16-20; not fully specified) [triple agonist of SEQ ID NO: 64]	92.9	60.1	64.6
H[Aib]QGTFTSDVSKYLDGQAAQEFVAWLLKGC (not fully specified) [triple agonist of SEQ ID NO: 8]	< 0.1	0.1	14.2
Y[Aib]QGTFTSDYSKYLDEKRAKDFVQWLLDHHPSSGQPPPSC (bridge 16-20; not fully specified) [triple agonist of SEQ ID NO: 76]	11.7	47.6	10.3
H[Aib]QGTFTSDVSKYLDGQAAQEFVAWLLAGC (not fully specified) [triple agonist of SEQ ID NO: 9]	< 0.1	0.13	32.1
Y[Aib]QGTFTSDYSKYLDECRAKDFVQWLLDHHPSSGQPPPS (bridge 16-20; not fully specified) [triple agonist of SEQ ID NO: 66]	17.2	172	15.8
H[Aib]QGTFTSDVSKYLDGQAAKEFVAWLLKGC (not fully specified) [triple agonist of SEQ ID NO: 7]	< 0.1	< 0.1	13.7
{Acetyl(2-(4-imidazolyl))}-[Aib]QGTFTSDYSKYLDEKRQKEFVQWLLNTC (bridge 15-19; not fully specified) [triple agonist of SEQ ID NO: 81]	< 0.1	0.3	7.8
H[Aib]EGTFTSDYSIAMDEIHQKDFVNWLLAQKC (bridge 16-20; not fully specified) [triple agonist of SEQ ID NO: 79]	1.4	4.9	41.5
